Measured values from patent US20250382359A1.

Biological target: GFRAL (co-expressed with RET on HEK293 stable cells) (UniProt Q6UXV0)
Assay: cell-based or functional assay

Chain of GFRAL (co-expressed with RET on HEK293 stable cells) (Q6UXV0 19-394 limits assumed): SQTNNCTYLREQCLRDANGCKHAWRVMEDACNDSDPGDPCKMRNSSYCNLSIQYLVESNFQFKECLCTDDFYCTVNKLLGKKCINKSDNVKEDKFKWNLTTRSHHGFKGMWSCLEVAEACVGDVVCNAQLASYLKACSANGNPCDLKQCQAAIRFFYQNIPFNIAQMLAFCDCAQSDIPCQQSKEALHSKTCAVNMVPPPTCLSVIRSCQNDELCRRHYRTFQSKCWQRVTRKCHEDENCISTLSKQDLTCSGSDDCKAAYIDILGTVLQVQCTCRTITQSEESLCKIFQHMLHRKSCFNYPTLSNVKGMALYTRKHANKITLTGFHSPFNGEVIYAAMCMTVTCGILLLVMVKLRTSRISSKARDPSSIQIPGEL

“GDF15 (ligand used in the GFRAL/RET cell assays) (from UniProt Q99988 197-308)” gave a Luciferase assay, GFRAL/RET/SRE reporter HEK293 cells; EC80 of GDF15 of 2 nM and a pERK assay, GFRAL/RET HEK293 cells; EC80 of GDF15 of 850 pM.
